This test concerns the target T1, NRF2-His (his-tag mouse NRF2) (mouse, UniProt Q60795 1-597).
T1 sequence (looked up): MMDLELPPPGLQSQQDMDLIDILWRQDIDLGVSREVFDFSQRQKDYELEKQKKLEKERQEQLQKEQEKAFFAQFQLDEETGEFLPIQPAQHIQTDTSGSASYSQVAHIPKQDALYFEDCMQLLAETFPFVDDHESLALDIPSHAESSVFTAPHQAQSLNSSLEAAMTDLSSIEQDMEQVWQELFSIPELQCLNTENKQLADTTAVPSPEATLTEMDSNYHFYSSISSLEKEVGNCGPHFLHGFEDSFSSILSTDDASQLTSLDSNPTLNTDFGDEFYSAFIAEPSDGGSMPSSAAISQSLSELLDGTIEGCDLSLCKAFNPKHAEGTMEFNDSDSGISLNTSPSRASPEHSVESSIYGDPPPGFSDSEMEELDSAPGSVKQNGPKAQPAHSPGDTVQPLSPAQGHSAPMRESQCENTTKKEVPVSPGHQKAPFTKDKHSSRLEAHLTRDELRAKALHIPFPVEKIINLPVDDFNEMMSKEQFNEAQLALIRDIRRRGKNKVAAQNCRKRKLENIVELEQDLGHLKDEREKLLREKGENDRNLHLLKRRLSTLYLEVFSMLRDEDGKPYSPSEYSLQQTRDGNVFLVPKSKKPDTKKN
Put plainly: pull-down.

B1: p53R245W-Flag (natural protein, mouse, UniProt P02340 1-390, looked up)
chain: MTAMEESQSDISLELPLSQETFSGLWKLLPPEDILPSPHCMDDLLLPQDVEEFFEGPSEALRVSGAPAAQDPVTETPGPVAPAPATPWPLSSFVPSQKTYQGNYGFHLGFLQSGTAKSVMCTYSPPLNKLFCQLAKTCPVQLWVSATPPAGSRVRAMAIYKKSQHMTEVVRRCPHHERCSDGDGLAPPQHLIRVEGNLYPEYLEDRQTFRHSVVVPYEPPEAGSEYTTIHYKYMCNSSCMGGMNWRPILTIITLEDSSGNLLGRDSFEVRVCACPGRDRRTEEENFRKKEVLCPELPPGSAKRALPTCTSASPPQKKKPLDGEYFTLKIRGRKRFEMFRELNEALELKDAHATEESGDSRAHSSYLKTKKGQSTSRHKKTMVKKVGPDSD
B1: the binding result is reported as “binds”.

The values above are taken from publication PMC10866549 (Science Advances, 2024).
